In patent US20090098103A1:

Tests used:
[1] = target: Human Recombinant TFPI (R&D Systems) (human) (UniProt P10646); test: SPR (Biacore T100), TFPI on CM5 chip, 320 nM FVIIa + 620 nM sTF; BHK-21 cells
[2] = target: Human Recombinant TFPI (R&D Systems) (human) (UniProt P10646); test: SPR (Biacore T100), TFPI on CM5 chip, 320 nM FVIIa + 620 nM sTF; 293-F cells

Chain of UniProt P10646 (P10646 29-282): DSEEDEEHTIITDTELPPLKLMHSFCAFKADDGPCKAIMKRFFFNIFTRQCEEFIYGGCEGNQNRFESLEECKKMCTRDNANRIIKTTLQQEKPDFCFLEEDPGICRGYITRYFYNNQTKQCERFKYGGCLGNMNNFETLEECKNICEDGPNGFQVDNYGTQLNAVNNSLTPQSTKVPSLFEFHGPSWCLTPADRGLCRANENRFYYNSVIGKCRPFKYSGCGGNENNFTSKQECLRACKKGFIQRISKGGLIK

Binding (wt/variant) [1] | Dissociation (wt/variant) [1] | Binding (wt/variant) [2] | Dissociation (wt/variant) [2] | Substance
0.7 | 0.6 |  |  | FVIIa variant CB867 K197I198insS (from UniProt P08709 61-466) (enzyme)
1.1 | 1 |  |  | FVIIa variant CB865 K197I198insY (from UniProt P08709 61-466) (enzyme)
 |  | 1.3 | 1.2 | FVIIa variant CB698 R290Q (from UniProt P08709 61-466) (enzyme)
 |  | 12.8 | 12.4 | FVIIa variant CB670 G237V/K341Q (from UniProt P08709 61-466) (enzyme)
 |  | 15.9 | 21.5 | FVIIa variant CB692 K197E/G237V/M298Q/K341Q (from UniProt P08709 61-466) (enzyme)
0.5 | 0.4 |  |  | FVIIa variant CB862 D196K197insA (from UniProt P08709 61-466) (enzyme)
 |  | 1.1 | 1.1 | FVIIa variant CB700 R290M (from UniProt P08709 61-466) (enzyme)
1 | 1 | 1 | 1 | wild-type Factor VII polypeptide (CB553-02), activated (FVIIa) (from UniProt P08709 61-466) (enzyme)
 |  | 1.8 | 1.6 | FVIIa variant CB689 K197E/G237V (from UniProt P08709 61-466) (enzyme)
 |  | 186 | 381 | FVIIa variant CB735 K341D (from UniProt P08709 61-466) (enzyme)
 |  | 0.7 | 0.7 | FVIIa variant CB699 R290K (from UniProt P08709 61-466) (enzyme)
1 | 1 | 0.8 | 0.8 | FVIIa variant CB593 V158D/E296V/M298Q (from UniProt P08709 61-466) (enzyme)
7.3 | 16.8 |  |  | FVIIa variant CB855 G237T238insV (from UniProt P08709 61-466) (enzyme)
 |  | 4.9 | 5.4 | FVIIa variant CB734 K341M (from UniProt P08709 61-466) (enzyme)
 |  | 67.2 | 171 | FVIIa variant CB637 K197E/K341Q (from UniProt P08709 61-466) (enzyme)
 |  | 147 | 196 | FVIIa variant CB945 M298Q/K341D (from UniProt P08709 61-466) (enzyme)
 |  | 2.2 | 2.1 | FVIIa variant CB688 K197E/K199E (from UniProt P08709 61-466) (enzyme)
 |  | 2.6 | 2.3 | FVIIa variant CB902 K197E/M298Q (from UniProt P08709 61-466) (enzyme)
0.4 | 0.4 |  |  | FVIIa variant CB863 D196K197insM (from UniProt P08709 61-466) (enzyme)
 |  | 2.6 | 2.7 | FVIIa variant CB701 R290V (from UniProt P08709 61-466) (enzyme)

Binding (wt/variant) [1] | Dissociation (wt/variant) [1] | Binding (wt/variant) [2] | Dissociation (wt/variant) [2] | Substance
 |  | 18.8 | 30.7 | FVIIa variant CB694 K199E/K341Q (from UniProt P08709 61-466) (enzyme)
 |  | 23.4 | 43.5 | FVIIa variant CB693 K197E/K199E/G237V/M298Q/K341Q (from UniProt P08709 61-466) (enzyme)
 |  | 2.2 | 1.8 | FVIIa variant CB608 G237V (from UniProt P08709 61-466) (enzyme)
 |  | 1.4 | 1.3 | FVIIa variant CB558 K197E (from UniProt P08709 61-466) (enzyme)
 |  | 11.3 | 63.8 | FVIIa variant CB733 K341N (from UniProt P08709 61-466) (enzyme)
22.8 | 154 |  |  | FVIIa variant CB856 G237T238insAS (from UniProt P08709 61-466) (enzyme)
5.2 |  |  |  | FVIIa variant CB854 G237T238insS (from UniProt P08709 61-466) (enzyme)
 |  | 1.9 | 1.8 | FVIIa variant CB592 M298Q (from UniProt P08709 61-466) (enzyme)
1.3 | 1.1 |  |  | FVIIa variant CB864 K197I198insE (from UniProt P08709 61-466) (enzyme)
 |  | 4.5 | 6 | FVIIa variant CB696 G237V/M298Q/K341Q (from UniProt P08709 61-466) (enzyme)
 |  | 0.9 | 0.8 | FVIIa variant CB695 G237V/M298Q (from UniProt P08709 61-466) (enzyme)
 |  | 1.6 | 1.5 | FVIIa variant CB697 R290N (from UniProt P08709 61-466) (enzyme)
0.5 | 0.5 |  |  | FVIIa variant CB859 D196K197insR (from UniProt P08709 61-466) (enzyme)
1 | 0.8 |  |  | FVIIa variant CB858 D196K197insK (from UniProt P08709 61-466) (enzyme)
21.5 | 146 |  |  | FVIIa variant CB857 G237T238insSA (from UniProt P08709 61-466) (enzyme)
 |  | 33.9 | 68.1 | FVIIa variant CB691 K197E/K199E/K341Q (from UniProt P08709 61-466) (enzyme)
6.5 | 18.2 |  |  | FVIIa variant CB853 G237T238insA (from UniProt P08709 61-466) (enzyme)
 |  |  | 19.7 | FVIIa variant CB609 K341Q (from UniProt P08709 61-466) (enzyme)
 |  | 1.4 | 1.4 | FVIIa variant CB563 K199E (from UniProt P08709 61-466) (enzyme)
 |  | 18.9 | 21.8 | FVIIa variant CB671 K197E/G237V/K341Q (from UniProt P08709 61-466) (enzyme)
